Measurements as given in paper PMC12331947, “Activation of AKT via a dual mechanism enhances the susceptibility of melanoma cells to glucose deprivation” (Cell Death & Disease, 2025).
Blank lines part the entries; values can stand above or below the molecule they belong to.

Assays:
[1] = biological target: T1, spleen tyrosine kinase (SYK) (Homo sapiens, UniProt P43405); assay: microscale thermophoresis (MST) with GFP-fused SYK in cell lysate; supported by in vitro kinase activation of bacterially expressed SYK; assay type: binding; parameters: full-length SYK-EmerGFP (HEK293T lysate)
[2] = biological target: T1, spleen tyrosine kinase (SYK); assay: microscale thermophoresis (MST) with GFP-fused SYK in cell lysate; assay type: binding; parameters: SYK-EmerGFP (HEK293T lysate)
[3] = biological target: T1, spleen tyrosine kinase (SYK); assay: microscale thermophoresis (MST) with GFP-fused SYK in cell lysate; supported by in vitro kinase activation of bacterially expressed SYK; assay type: binding; parameters: full-length SYK-EmerGFP (HEK293T lysate); remark: listed apart in the source
[4] = biological target: PDK1^9CS with Cys21 rescued (human) (UniProt O15530); assay: non-reducing gel and immunoblot; A375 cells in glucose-free medium for 3 h, with or without NAC (5 mM) or GSH (2.5 mM); PDK1 monomer and dimer bands under non-reducing conditions
[5] = biological target: PDK1^9CS with Cys23 rescued (human) (UniProt O15530); assay: as above
[6] = biological target: T2, endogenous PDK1 (human (endogenous in A375)), O15530; assay: as above; details: remark: other sources report otherwise
T2 chain: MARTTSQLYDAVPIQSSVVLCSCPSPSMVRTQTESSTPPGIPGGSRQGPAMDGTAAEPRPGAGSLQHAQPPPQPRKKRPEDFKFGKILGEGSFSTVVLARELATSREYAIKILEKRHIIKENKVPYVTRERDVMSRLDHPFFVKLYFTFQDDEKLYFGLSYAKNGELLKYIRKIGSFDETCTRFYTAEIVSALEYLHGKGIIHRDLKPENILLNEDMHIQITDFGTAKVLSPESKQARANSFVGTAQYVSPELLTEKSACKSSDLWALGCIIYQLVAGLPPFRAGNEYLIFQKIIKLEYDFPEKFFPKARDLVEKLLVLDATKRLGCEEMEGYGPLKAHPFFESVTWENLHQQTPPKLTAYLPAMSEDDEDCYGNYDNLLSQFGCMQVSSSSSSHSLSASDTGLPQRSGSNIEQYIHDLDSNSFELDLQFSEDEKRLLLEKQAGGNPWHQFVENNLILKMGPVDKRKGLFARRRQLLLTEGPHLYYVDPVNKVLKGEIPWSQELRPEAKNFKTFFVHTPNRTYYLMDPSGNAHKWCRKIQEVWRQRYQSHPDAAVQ

[7] = biological target: T3, PDK1 (exogenous, HA- or Flag-tagged) (human), O15530; assay: as above; details: remark: other sources report otherwise
T3 chain: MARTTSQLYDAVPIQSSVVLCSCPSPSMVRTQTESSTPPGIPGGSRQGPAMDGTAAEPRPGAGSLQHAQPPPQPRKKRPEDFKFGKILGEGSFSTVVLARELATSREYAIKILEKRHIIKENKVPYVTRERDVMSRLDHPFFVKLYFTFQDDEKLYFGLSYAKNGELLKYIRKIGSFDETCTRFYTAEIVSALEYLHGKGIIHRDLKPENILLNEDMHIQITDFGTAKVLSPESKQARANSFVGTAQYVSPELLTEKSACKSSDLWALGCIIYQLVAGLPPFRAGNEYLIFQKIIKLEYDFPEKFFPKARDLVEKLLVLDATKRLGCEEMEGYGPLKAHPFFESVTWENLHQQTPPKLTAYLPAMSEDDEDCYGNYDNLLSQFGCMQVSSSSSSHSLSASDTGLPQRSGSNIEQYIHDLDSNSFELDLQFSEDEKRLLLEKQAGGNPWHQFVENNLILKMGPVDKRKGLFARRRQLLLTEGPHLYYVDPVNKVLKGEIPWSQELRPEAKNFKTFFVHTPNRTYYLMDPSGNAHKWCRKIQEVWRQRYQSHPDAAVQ

Molecule: Nc1ncnc2c1ncn2[C@@H]1O[C@H](COP(=O)(O)OP(=O)(O)O)[C@@H](O)[C@H]1O [ADP]
Kd [1]: 42.4 ± 19.1 µM

Molecule: NC(=O)C1=CN([C@@H]2O[C@H](COP(=O)(O)OP(=O)(O)OC[C@H]3O[C@@H](n4cnc5c(N)ncnc54)[C@H](OP(=O)(O)O)[C@@H]3O)[C@@H](O)[C@H]2O)C=CC1 [NADPH]
Kd [2]: 232 ± 16.5 µM

Molecule: NC(=O)c1ccc[n+]([C@@H]2O[C@H](COP(=O)([O-])OP(=O)(O)OC[C@H]3O[C@@H](n4cnc5c(N)ncnc54)[C@H](OP(=O)(O)O)[C@@H]3O)[C@@H](O)[C@H]2O)c1 [NADP^+]
Kd [3]: 69.1 ± 16.1 µM

Further lines, results first:

stoichiometry N [4]: 2
Molecule: PDK1^9CS with Cys21 rescued (from UniProt O15530 1-556) (enzyme)

stoichiometry N [5]: 2
Molecule: PDK1^9CS with Cys23 rescued (from UniProt O15530 1-556) (enzyme)

stoichiometry N [6]: 2
B1: endogenous PDK1, O15530 1-556 (enzyme)
chain: MARTTSQLYDAVPIQSSVVLCSCPSPSMVRTQTESSTPPGIPGGSRQGPAMDGTAAEPRPGAGSLQHAQPPPQPRKKRPEDFKFGKILGEGSFSTVVLARELATSREYAIKILEKRHIIKENKVPYVTRERDVMSRLDHPFFVKLYFTFQDDEKLYFGLSYAKNGELLKYIRKIGSFDETCTRFYTAEIVSALEYLHGKGIIHRDLKPENILLNEDMHIQITDFGTAKVLSPESKQARANSFVGTAQYVSPELLTEKSACKSSDLWALGCIIYQLVAGLPPFRAGNEYLIFQKIIKLEYDFPEKFFPKARDLVEKLLVLDATKRLGCEEMEGYGPLKAHPFFESVTWENLHQQTPPKLTAYLPAMSEDDEDCYGNYDNLLSQFGCMQVSSSSSSHSLSASDTGLPQRSGSNIEQYIHDLDSNSFELDLQFSEDEKRLLLEKQAGGNPWHQFVENNLILKMGPVDKRKGLFARRRQLLLTEGPHLYYVDPVNKVLKGEIPWSQELRPEAKNFKTFFVHTPNRTYYLMDPSGNAHKWCRKIQEVWRQRYQSHPDAAVQ

stoichiometry N [7]: 2
B2: PDK1 (exogenous, HA- or Flag-tagged), O15530 1-556 (enzyme)
chain: MARTTSQLYDAVPIQSSVVLCSCPSPSMVRTQTESSTPPGIPGGSRQGPAMDGTAAEPRPGAGSLQHAQPPPQPRKKRPEDFKFGKILGEGSFSTVVLARELATSREYAIKILEKRHIIKENKVPYVTRERDVMSRLDHPFFVKLYFTFQDDEKLYFGLSYAKNGELLKYIRKIGSFDETCTRFYTAEIVSALEYLHGKGIIHRDLKPENILLNEDMHIQITDFGTAKVLSPESKQARANSFVGTAQYVSPELLTEKSACKSSDLWALGCIIYQLVAGLPPFRAGNEYLIFQKIIKLEYDFPEKFFPKARDLVEKLLVLDATKRLGCEEMEGYGPLKAHPFFESVTWENLHQQTPPKLTAYLPAMSEDDEDCYGNYDNLLSQFGCMQVSSSSSSHSLSASDTGLPQRSGSNIEQYIHDLDSNSFELDLQFSEDEKRLLLEKQAGGNPWHQFVENNLILKMGPVDKRKGLFARRRQLLLTEGPHLYYVDPVNKVLKGEIPWSQELRPEAKNFKTFFVHTPNRTYYLMDPSGNAHKWCRKIQEVWRQRYQSHPDAAVQ
